Reference: patent US20200317768A1 (published 2020)
Positions count from the first letter of the chain named.

Key:
[1] = molecular target: T1, cynomolgus monkey FcγRIIb extracellular domain, His-tagged (cynomolgus monkey); test: SPR (BIACORE), captured antibody, FcgR as analyte
T1 construct: also called cyno FcγRIIb; cynoFcγRIIb; not shown: C-terminal His-tag
T1 chain: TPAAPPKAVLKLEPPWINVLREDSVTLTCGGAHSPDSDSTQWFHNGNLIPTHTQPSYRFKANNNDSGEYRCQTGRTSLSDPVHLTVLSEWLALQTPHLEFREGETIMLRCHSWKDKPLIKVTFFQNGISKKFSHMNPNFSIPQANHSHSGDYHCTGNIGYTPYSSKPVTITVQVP

[2] = molecular target: T2, human FcγRIIb extracellular domain, His-tagged (human, UniProt P31994 43-217); test: SPR (BIACORE), captured antibody, FcgR as analyte
T2 construct: also called FcgRIIb (human); not shown: C-terminal His-tag
T2 sequence: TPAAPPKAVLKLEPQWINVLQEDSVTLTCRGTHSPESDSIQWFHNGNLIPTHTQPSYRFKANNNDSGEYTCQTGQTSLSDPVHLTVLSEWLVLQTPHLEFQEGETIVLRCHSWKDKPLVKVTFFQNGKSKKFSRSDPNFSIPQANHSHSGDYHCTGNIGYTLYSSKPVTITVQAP

[3] = molecular target: T3, human FcγRIIIaV extracellular domain, His-tagged (human, UniProt P08637 17-208); test: SPR (BIACORE), captured antibody, FcgR as analyte
T3 construct: also called FcgRIIIaV; not shown: C-terminal His-tag
T3 sequence (P08637 17-208 F176V): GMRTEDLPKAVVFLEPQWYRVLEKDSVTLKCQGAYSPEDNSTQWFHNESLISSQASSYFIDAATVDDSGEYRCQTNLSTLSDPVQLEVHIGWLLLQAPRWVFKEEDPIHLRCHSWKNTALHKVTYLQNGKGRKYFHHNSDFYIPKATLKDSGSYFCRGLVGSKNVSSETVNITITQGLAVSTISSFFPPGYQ

[4] = molecular target: T4, human FcγRIIaH extracellular domain, His-tagged (human, UniProt P12318 34-217); test: SPR (BIACORE), captured antibody, FcgR as analyte
T4 construct: also called human FcγRIIa (type H); FcgRIIaH; not shown: C-terminal His-tag
T4 sequence: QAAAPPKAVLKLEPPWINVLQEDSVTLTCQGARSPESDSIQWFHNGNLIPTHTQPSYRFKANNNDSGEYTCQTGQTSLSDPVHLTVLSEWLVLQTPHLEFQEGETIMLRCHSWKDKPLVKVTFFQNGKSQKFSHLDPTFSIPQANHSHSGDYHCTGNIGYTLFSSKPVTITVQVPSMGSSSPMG

[5] = molecular target: T5, cynomolgus monkey FcγRIIa1 extracellular domain, His-tagged (cynomolgus monkey); test: SPR (BIACORE), captured antibody, FcgR as analyte
T5 construct: also called cyno FcγRIIa1; cynoFcgRIIa1; not shown: C-terminal His-tag
T5 chain: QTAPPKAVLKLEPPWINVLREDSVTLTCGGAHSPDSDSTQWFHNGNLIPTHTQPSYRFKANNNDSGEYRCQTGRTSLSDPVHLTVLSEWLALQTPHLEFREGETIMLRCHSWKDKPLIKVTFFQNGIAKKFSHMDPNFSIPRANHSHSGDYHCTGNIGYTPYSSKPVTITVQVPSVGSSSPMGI

[6] = molecular target: T6, cynomolgus monkey FcγRIIa3 extracellular domain, His-tagged (cynomolgus monkey); test: SPR (BIACORE), captured antibody, FcgR as analyte
T6 construct: also called cyno FcγRIIa3; cynoFcgRIIa3; not shown: C-terminal His-tag
T6 chain: T5 chain with P95T, T121A, A128S, H133P, D135N

[7] = molecular target: T7, cynomolgus monkey FcγRIIa2 extracellular domain, His-tagged (cynomolgus monkey); test: SPR (BIACORE), captured antibody, FcgR as analyte
T7 construct: also called cyno FcγRIIa2; cynoFcgRIIa2; not shown: C-terminal His-tag
T7 chain: T5 chain with P95T, T121A, I127K, A128S, K130N, D135N, R142Q

[8] = molecular target: T8, human FcγRIIaR extracellular domain, His-tagged (human, UniProt P12318 34-217); test: SPR (BIACORE), captured antibody, FcgR as analyte
T8 construct: also called human FcγRIIa (type R); FcgRIIaR; not shown: C-terminal His-tag
T8 chain: T4 sequence with H134R

[9] = molecular target: T9, human FcγRIIaH extracellular domain with C-terminal His-tag (human, UniProt P12318 34-217); test: SPR (BIACORE); KD of SG1 / KD of variant;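 also: relative to parent M103205H795-SG1 carrying the SG1 human heavy chain constant region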
T9 construct: also called human FcgRIIaH; FcγRIIa (type H)
T9 sequence: T4 sequence

B1: M103205H795-MY463/M103202L889-SK1 (antibody, human IgG1, kappa)
heavy: QVTLKESGPVLVKPTETLTLTCTVSGIDLSHDDISWVRQAPGKGLEWVGIISYAGSTYYASWAKGRLTISKDTSKNQVVLTMTNMDPVDTATYYCARGVPAYSHGGDLWGQGTLVTVSSASTKGPSVFPLAPSSKSTSGGTAALGCLVKDYFPEPVTVSWNSGALTSGVHTFPAVLQSSGLYSLSSVVTVPSSSLGTQTYICNVNHKPSNTKVDKKVEPKSCDKTHTCPPCPHPELLTGPSVFLFPPKPKDTLMISRTPEVTCVVVDVSDEDPEVKFNWYVDGVEVHNAKTKPREEQYNSTYRVVSVLTVLHQDWLNGKEYKCKVSNKALPKPIEKTISKAKGQPREPQVYTLPPSREEMTKNQVSLTCLVKGFYPSDIAVEWESNGQPENNYKTTPPVLDSDGSFFLYSKLTVDKSRWQQGNVFSCSVMHEALHNHYTQKSLSLSP
light: DIVMTQSPATLSLSPGERATLSCTSSQSVYHANWLSWFQQKPGQPPKLLIYWASTLAYGVPSRFSGSGSGTDFTLTISSLQPEDAATYYCAGGYGGGRYAFGQGTKVEIKRTVAAPSVFIFPPSDEQLKSGTASVVCLLNNFYPREAKVQWKVDNALQSGNSQESVTEQDSKDSTYSLSSTLTLSKADYEKHKVYACEVTHQGLSSPVTKSFNRGEC
notes: copies: 2 + 2
For B1, the Kd [1] was 580 nM, the Kd [2] was 2800 nM and the Kd [3] was 4300 nM. For the same binder, the Kd [4] was 220 nM, the Kd [5] was 2100 nM and the Kd [6] was 4400 nM. The Kd [7] was 1800 nM and the Kd [8] was 520 nM.

B2: M103205H795-MY464/M103202L889-SK1 (antibody, human IgG1, kappa)
heavy: B1 heavy with H233I
light: B1 light
notes: copies: 2 + 2
For B2, the Kd [1] was 500 nM, the Kd [2] was 1600 nM and the Kd [3] was 4400 nM. For the same binder, the Kd [4] was 170 nM, the Kd [5] was 1900 nM and the Kd [6] was 3900 nM. For the same binder, the Kd [7] was 1500 nM and the Kd [8] was 260 nM.

B3: M103205H795-MY465/M103202L889-SK1 (antibody, human IgG1, kappa)
heavy: B1 heavy with H233K
light: B1 light
notes: copies: 2 + 2
With B3 the Kd [1] was 630 nM, the Kd [2] was 2800 nM and the Kd [3] was 5500 nM. It also gave a Kd [4] of 250 nM, a Kd [5] of 2000 nM and a Kd [6] of 5200 nM. It also gave a Kd [7] of 2800 nM and a Kd [8] of 600 nM.

B4: M103205H795-MY466/M103202L889-SK1 (antibody, human IgG1, kappa)
heavy: B1 heavy with H233L
light: B1 light
notes: copies: 2 + 2
Binder B4 has a Kd [1] of 510 nM, a Kd [2] of 1400 nM and a Kd [3] of 4300 nM. The Kd [4] was 170 nM, the Kd [5] was 1900 nM and the Kd [6] was 4400 nM. The Kd [7] was 1800 nM and the Kd [8] was 280 nM.

B5: M103205H795-MY467/M103202L889-SK1 (antibody, human IgG1, kappa)
heavy: B1 heavy with H233M
light: B1 light
notes: copies: 2 + 2
B5 was tested, and the Kd [1] was 510 nM, the Kd [2] was 2000 nM and the Kd [3] was 4800 nM. It also gave a Kd [4] of 180 nM, a Kd [5] of 1900 nM and a Kd [6] of 4700 nM. For the same binder, the Kd [7] was 1900 nM and the Kd [8] was 360 nM.

B6: M103205H795-MY468/M103202L889-SK1 (antibody, human IgG1, kappa)
heavy: B1 heavy with H233N
light: B1 light
notes: copies: 2 + 2
With B6 the Kd [1] was 650 nM, the Kd [2] was 2600 nM and the Kd [3] was 6800 nM. It also gave a Kd [4] of 280 nM, a Kd [5] of 2800 nM and a Kd [6] of 5200 nM. For the same binder, the Kd [7] was 2500 nM and the Kd [8] was 470 nM.

B7: M103205H795-MY469/M103202L889-SK1 (antibody, human IgG1, kappa)
heavy: B1 heavy with H233P
light: B1 light
notes: copies: 2 + 2
With B7 the Kd [1] was 610 nM, the Kd [2] was 2400 nM and the Kd [3] was 5900 nM. The Kd [4] was 200 nM, the Kd [5] was 2200 nM and the Kd [6] was 4900 nM. For the same binder, the Kd [7] was 2100 nM and the Kd [8] was 430 nM.

B8: M103205H795-MY470/M103202L889-SK1 (antibody, human IgG1, kappa)
heavy: B1 heavy with H233Q
light: B1 light
notes: copies: 2 + 2
Binder B8 has a Kd [1] of 550 nM, a Kd [2] of 2700 nM and a Kd [3] of 5100 nM. For the same binder, the Kd [4] was 220 nM, the Kd [5] was 2200 nM and the Kd [6] was 4900 nM. For the same binder, the Kd [7] was 1800 nM and the Kd [8] was 470 nM.

B9: M103205H795-MY471/M103202L889-SK1 (antibody, human IgG1, kappa)
heavy: B1 heavy with H233R
light: B1 light
notes: copies: 2 + 2
B9 was tested, and the Kd [1] was 700 nM, the Kd [2] was 2800 nM and the Kd [3] was 5300 nM. The Kd [4] was 230 nM, the Kd [5] was 2600 nM and the Kd [6] was 4500 nM. The Kd [7] was 2100 nM and the Kd [8] was 470 nM.

B10: M103205H795-MY472/M103202L889-SK1 (antibody, human IgG1, kappa)
heavy: B1 heavy with H233S
light: B1 light
notes: copies: 2 + 2
Binder B10 has a Kd [1] of 660 nM, a Kd [2] of 2500 nM and a Kd [3] of 6300 nM. The Kd [4] was 250 nM, the Kd [5] was 2400 nM and the Kd [6] was 5100 nM. The Kd [7] was 2100 nM and the Kd [8] was 490 nM.

B11: M103205H795-MY473/M103202L889-SK1 (antibody, human IgG1, kappa)
heavy: B1 heavy with H233T
light: B1 light
notes: copies: 2 + 2
B11 gave a Kd [1] of 580 nM, a Kd [2] of 2200 nM and a Kd [3] of 5200 nM. For the same binder, the Kd [4] was 220 nM, the Kd [5] was 1600 nM and the Kd [6] was 5500 nM. It also gave a Kd [7] of 2600 nM and a Kd [8] of 490 nM.

B12: M103205H795-MY474/M103202L889-SK1 (antibody, human IgG1, kappa)
heavy: B1 heavy with H233V
light: B1 light
notes: copies: 2 + 2
In the case of B12, the Kd [1] is reported as 500 nM, the Kd [2] is reported as 2000 nM and the Kd [3] is reported as 4600 nM. The Kd [4] was 170 nM, the Kd [5] was 2000 nM and the Kd [6] was 4800 nM. It also gave a Kd [7] of 1800 nM and a Kd [8] of 340 nM.

B13: M103205H795-MY475/M103202L889-SK1 (antibody, human IgG1, kappa)
heavy: B1 heavy with H233W
light: B1 light
notes: copies: 2 + 2
Work on B13 yielded a Kd [1] of 270 nM, a Kd [2] of 1100 nM and a Kd [3] of 5000 nM. The Kd [4] was 90 nM, the Kd [5] was 1000 nM and the Kd [6] was 2300 nM. For the same binder, the Kd [7] was 1000 nM and the Kd [8] was 210 nM.

B14: M103205H795-MY476/M103202L889-SK1 (antibody, human IgG1, kappa)
heavy: B1 heavy with H233Y
light: B1 light
notes: copies: 2 + 2
For B14, the Kd [1] was 590 nM, the Kd [2] was 1200 nM and the Kd [3] was 5500 nM. The Kd [4] was 140 nM, the Kd [5] was 1400 nM and the Kd [6] was 2600 nM. The Kd [7] was 1300 nM and the Kd [8] was 250 nM.

B15: M103205H795-MY209/M103202L889-SK1 (antibody, human IgG1, kappa)
heavy: B1 heavy with H233A, T238N, Q297L, K328T
light: B1 light
notes: Substitutions introduced into M103205H795-SG1, expressed with M103202L889-SK1 as light chain; EU numbering
With B15 the “KD fold (SG1 = 1)” value [9] was 1.2 fold.

B16: M103205H795-MY283/M103202L889-SK1 (antibody, human IgG1, kappa)
heavy: B1 heavy with H233A, Q297L
light: B1 light
notes: as for B15
In the case of B16, the “KD fold (SG1 = 1)” value [9] is reported as 4.9 fold.

B17: M103205H795-MY339/M103202L889-SK1 (antibody, human IgG1, kappa)
heavy: B1 heavy with H233A, T238L, K328T, P398K
light: B1 light
notes: as for B15
In the case of B17, the “KD fold (SG1 = 1)” value [9] is reported as 1.7 fold.
